Values quoted from earlier work, collected in PMC13615496.

Biological target: PYL (Arabidopsis thaliana) (UniProt Q8VZS8)
Chain of UniProt Q8VZS8 (Q8VZS8 2-221): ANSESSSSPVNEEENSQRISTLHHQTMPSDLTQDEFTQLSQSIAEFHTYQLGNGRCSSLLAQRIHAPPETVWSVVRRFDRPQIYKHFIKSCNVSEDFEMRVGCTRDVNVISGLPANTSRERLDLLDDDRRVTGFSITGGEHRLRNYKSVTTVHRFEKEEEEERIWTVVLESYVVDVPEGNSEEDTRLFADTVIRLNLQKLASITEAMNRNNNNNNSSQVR

Kd: 52 µM
Substance: ABI (from UniProt P49597)
